Reference: patent US8487074B2, “Modulation of lipid rafts” (Lantmannen AS-Faktor AB, priority 2006, dated 2013)
No end group written: not given here.

B1: AF: antisecretory factor, a 41 kDa protein comprising 382 amino acids; the term also covers homologues, derivatives and fragments (protein, listed as Homo sapiens)
chain: MVLESTMVCVDNSEYMRNGDFLPTRLQAQQDAVNIVCHSKTRSNPENNVGLITLANDCEVLTTLTPDTGRILSKLHTVQPKGKITFCTGIRVAHLALKHRQGKNHKMRIIAFVGSPVEDNEKDLVKLAKRLKKEKVNVDIINFGEEEVNTEKLTAFVNTLNGKDGTGSHLVTVPPGPSLADALISSPILAGEGGAMLGLGASDFEFGVDPSADPELALALRVSMEEQRHAGGGARRAARASAAEAGIATTGTEDSDDALLKMTISQQEFGRTGLPDLSSMTEEEQIAYAMQMSLQGAEFGQAESADIDASSAMDTSEPAKEEDDYDVMQDPEFLQSVLENLPGVDPNNEAIRNAMGSLPPRPPRTARRTRRRKTRSETGGKG

How the values were obtained:
[1] = system: injured skin and cartilage; set-up: species or system rats; details: rat, in vivo
Description: In an experiment it was investigated whether the administration of AF-16 affected the healing process of injured skin and cartilage, using freeze-thaw injury to a rat ear as a model system. […] In addition 1 mg AF-16 was injected intramuscularly just after the implantation of the pump. Thereafter, a freeze-thaw injury was applied by compressing the ear in a standardized manner with the aid of a Pean's forceps, chilled in liquid nitrogen. For comparison, additional rats were treated in the same way in parallel were treated with the vehicle, PBS with 15% ethanol, only and no peptide. Additionally, normal rats, which had not been exposed to any freeze-thaw injury, were used for reference as were non-injured rats having pumps with AF-16 implanted. […] On either side bordering the injured elastic cartilage in the ear there was a formation of new hyaline cartilage. […] The amount of collagen and density of inflammatory cells were reduced in the AF-16 treated animals as compared to those having had the vehicle.

pulmonary hypertension = test: Crotaline (monocrotaline) induced pulmonary hypertension in rats; format: in vivo, Sprague-Dawley rats; details: crotaline 60 mg/kg ip; minipump infusion; assessed 18 days later; vs untreated normal controls
Description: Adolescent and adult rats, with a body weight of 150-300 g and of either sex, were treated experimentally to induce pulmonary hypertension and reactive alterations in the lungs. Pulmonary hypertension (PH) is defined as having a pressure in excess of the normal pulmonary artery pressure, […], usually in the range of 30-40 mm Hg. It is a progressive disease with high morbidity and mortality in humans as well as in animals. Experimental models enable investigation of the initiating mechanisms. A single treatment of rats with monocrotaline is an established approach for the induction of PH (Cf. Mathew et al., 2004). […]
The rats were anaesthetized 18 days later, and their body weights determined. […] The pressure in the right heart ventricle was assessed with the aid of a fiber optic miniature transducer system (Samba System 3200 & Samba Preclin 420 sensor; Samba Sensors AB, V. Frolunda, Sweden), inserted through the right jugular vein. […] In contrast, rats treated with crotaline (single ip injection; 60 mg/kg body weight; crotaline dissolved in PBS) and the vehicle delivered by a Alzet pump had for 18 days an pulmonary artery pressure in excess of 30 mm Hg and a hypertrophy of the right ventricle, as assessed by comparing its wet weight to that of the left ventricle and with the weight of corresponding structures of non-treated, normal rats. […]

aquaporins = test: Effects of AF treatment on aquaporins after trauma, infections and other pathological conditions; format: in vivo; details: topical or systemic administration
From the text: Aquaporins are a family of proteins, integrated in membranes, and expressed in all living cells and organisms. The major function of aquaporins is to control the water flow into and out of cells, i.e. between the cytoplasm of cells and the extracellular environment. Each type of cells, tissues and organs have their specific set of aquaporins with characteristic distribution patterns. Functional aquaporins are preferentially clustered in lipid rafts and caveolae, while subunits and dissociated aquaporin complexes may be demonstrable outside these membrane constituents. […] Further, at brain and spinal cord infections, e.g. encephalitis, the patterns of distribution and intensity of these two aquaporins became altered, as disclosed be immunohistochemistry and immunochemistry. The interaction between e.g. neurons and supporting glial cells and vascular structures seems to be intricate and complex, but important.
Experiments are performed mapping in more detail regarding effects of trauma, infections and other pathological conditions. […] Effects are characterized quantitatively and qualitatively and the importance of effects on the structure and functions of the different types of aquaporins in a body. […]

injured skin and periost = test: Healing of calvarial skin wound and periost in rabbits; format: in vivo, New Zeeland albino rabbits; details: vs vehicle
Description: Adult rabbits were investigated with regard to whether the administration of AF-16 affected the healing process of injured skin and periost. […] The rabbits had either AF-16 or the vehicle injected intravenously in a marginal ear vein. The dose of AF-16 was up to 5 mg per kg body weight, twice daily. The calvarial skin wound and the injection sites in the ear were investigated macroscopically after a week. Then, specimens were dissected from both areas and prepared by fixation, embedding, sectioning and staining for light microscopic examination.

Row | Molecule | structures in the ear of non-injured rats [1] | general appearance and body weight (pulmonary hypertension) | prevalence, distribution and activity of aquaporins and ion channel complexes (aquaporins) | frequency of caveolae (injured skin and periost)
1 | VCHSKTRSNPENNVGL [AF-16, VCHSKTRSNPENNVGL] | did not alter the structures in the ear |  |  | 
2 | B1 |  | appeared healthy and had almost the same weight and appearance as the controls | great impact in monitoring and even normalizing | more normal
